Literature values as cited in publication PMC3043165.

Legend:
[1] = molecular target: integrin αvβ5 (Homo sapiens) (UniProt P06756)
[2] = molecular target: integrin αIIbβ3 (Homo sapiens) (UniProt P08514)

integrin αvβ5 (Homo sapiens), sequence (P06756 31-992, chain 1 of 2): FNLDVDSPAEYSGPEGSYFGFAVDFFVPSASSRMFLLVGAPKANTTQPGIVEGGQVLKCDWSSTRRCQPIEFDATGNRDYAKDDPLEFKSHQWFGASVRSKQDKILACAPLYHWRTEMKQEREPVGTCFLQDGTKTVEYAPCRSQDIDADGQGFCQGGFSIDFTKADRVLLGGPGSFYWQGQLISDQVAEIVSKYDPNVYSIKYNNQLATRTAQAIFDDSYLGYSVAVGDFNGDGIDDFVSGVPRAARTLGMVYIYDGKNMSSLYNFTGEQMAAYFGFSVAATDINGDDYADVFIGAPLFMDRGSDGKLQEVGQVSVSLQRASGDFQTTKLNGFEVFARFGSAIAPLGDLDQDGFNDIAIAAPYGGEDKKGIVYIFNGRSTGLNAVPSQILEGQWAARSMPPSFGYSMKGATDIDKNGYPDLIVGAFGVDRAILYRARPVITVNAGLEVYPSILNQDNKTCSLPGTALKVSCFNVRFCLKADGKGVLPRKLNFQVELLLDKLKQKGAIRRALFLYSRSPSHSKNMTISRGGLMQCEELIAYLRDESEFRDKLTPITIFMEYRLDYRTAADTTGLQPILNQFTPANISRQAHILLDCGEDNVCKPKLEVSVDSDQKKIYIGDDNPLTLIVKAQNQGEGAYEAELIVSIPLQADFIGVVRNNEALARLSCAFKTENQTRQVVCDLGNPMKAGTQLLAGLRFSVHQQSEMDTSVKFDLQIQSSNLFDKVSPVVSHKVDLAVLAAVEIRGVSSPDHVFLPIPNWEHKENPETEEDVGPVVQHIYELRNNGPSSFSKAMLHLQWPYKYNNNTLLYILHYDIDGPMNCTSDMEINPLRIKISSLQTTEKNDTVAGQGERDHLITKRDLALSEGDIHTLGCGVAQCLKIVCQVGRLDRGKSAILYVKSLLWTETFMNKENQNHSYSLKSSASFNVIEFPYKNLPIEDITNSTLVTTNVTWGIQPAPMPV
integrin αvβ5 (Homo sapiens), sequence (P18084 24-719, chain 2 of 2, further chain): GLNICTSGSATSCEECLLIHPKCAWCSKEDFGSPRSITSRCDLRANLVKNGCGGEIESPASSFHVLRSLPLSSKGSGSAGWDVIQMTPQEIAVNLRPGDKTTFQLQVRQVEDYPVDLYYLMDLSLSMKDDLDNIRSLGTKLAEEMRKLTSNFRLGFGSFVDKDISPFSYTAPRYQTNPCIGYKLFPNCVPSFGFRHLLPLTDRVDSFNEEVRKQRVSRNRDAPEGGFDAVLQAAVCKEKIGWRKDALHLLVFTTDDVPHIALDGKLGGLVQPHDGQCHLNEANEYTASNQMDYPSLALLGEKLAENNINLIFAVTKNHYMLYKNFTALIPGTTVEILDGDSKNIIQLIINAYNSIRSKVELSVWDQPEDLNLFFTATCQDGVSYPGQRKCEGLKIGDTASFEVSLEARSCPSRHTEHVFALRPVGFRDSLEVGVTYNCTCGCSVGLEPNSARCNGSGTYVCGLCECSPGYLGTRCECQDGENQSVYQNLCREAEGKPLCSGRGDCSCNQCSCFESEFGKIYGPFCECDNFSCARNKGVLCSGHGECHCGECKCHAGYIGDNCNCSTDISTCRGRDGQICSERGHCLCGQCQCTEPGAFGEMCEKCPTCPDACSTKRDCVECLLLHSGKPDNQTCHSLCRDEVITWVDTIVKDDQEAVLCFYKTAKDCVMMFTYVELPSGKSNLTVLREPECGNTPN

## GRGDS peptide
[1]
  IC50: > 5000 nM

## c(RGDyK)
[2]
  IC50: 0.11 nM
